Experimental data taken from the supplement of paper PMC12455559.
± gives the standard deviation of the averaged measurements.

How the values were obtained:
[1] = melting temperature (DSF); higher = more thermostable
How it was run: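 Values are melting temperatures from differential scanning fluorimetry. Candidate enzymes were expressed in E. coli C41(DE3), purified on nickel beads and freed by SUMO protease cleavage. In sealed PCR plates on a Bio-Rad CFX96, 45 μL enzyme (0 to 0.3 mg/mL) was combined with 5 μL 5X Sypro Orange. Fluorescence was recorded from 25 °C for 250 cycles, rising 0.3 °C per cycle at a ramp of 0.3 °C/s.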

[2] = PET hydrolysis, aromatic products released after 48 h (umol product/mg enzyme); higher = more PET depolymerization activity
How it was run: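 Reactions ran in sealed plates without shaking for 48 h at 40 or 60 °C. Each held 3.5 mg amorphous PET film or crystalline PET powder, 450 μL buffer and 5 μg (50 μL) of tagless, SUMO-cleaved, nickel-purified candidate enzyme. Buffers were 50 mM NaCitrate at pH 4.5 or 5.5, 50 mM NaPhosphate at pH 6.5 or 7.5, and glycine at pH 8.5. The supernatant's aromatic product, read at 260 and 280 nm against buffer blanks, gives PET hydrolysis activity per mg enzyme.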

[3] = purified protein yield per well (BCA); higher = higher soluble expression
How it was run: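 Each candidate enzyme was grown in E. coli C41(DE3) in a 2 mL autoinduction culture (100 µg/mL kanamycin; 2 h at 37 °C, then 40 h at 18 °C) and purified robotically via Ni-charged magnetic beads with SUMO protease cleavage. Purified protein yield per well was assessed using the Pierce Rapid Gold BCA kit. Readings below 25 ug (0.1 mg/mL) are beneath the detection threshold.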

[4] = substrate: aFilm, 40 °C, pH 4.5
[5] = substrate: aFilm, 40 °C, pH 5.5
[6] = substrate: aFilm, 40 °C, pH 6.5
[7] = substrate: aFilm, 40 °C, pH 7.5
[8] = substrate: aFilm, 60 °C, pH 4.5
[9] = substrate: aFilm, 60 °C, pH 5.5
[10] = substrate: aFilm, 60 °C, pH 6.5
[11] = substrate: aFilm, 60 °C, pH 7.5
[12] = substrate: cryPow, 40 °C, pH 4.5
[13] = substrate: cryPow, 40 °C, pH 5.5
[14] = substrate: cryPow, 40 °C, pH 6.5
[15] = substrate: cryPow, 40 °C, pH 7.5
[16] = substrate: cryPow, 60 °C, pH 4.5
[17] = substrate: cryPow, 60 °C, pH 5.5
[18] = substrate: cryPow, 60 °C, pH 6.5
[19] = substrate: cryPow, 60 °C, pH 7.5
[20] = substrate: cryPow, 40 °C, pH 8.5

Sequence	melting temperature [1] [C]	PET hydrolysis [2, 4]	PET hydrolysis [2, 5]	PET hydrolysis [2, 6]	PET hydrolysis [2, 7]	PET hydrolysis [2, 8]	PET hydrolysis [2, 9]	PET hydrolysis [2, 10]	PET hydrolysis [2, 11]	PET hydrolysis [2, 12]	PET hydrolysis [2, 13]	PET hydrolysis [2, 14]	PET hydrolysis [2, 15]	PET hydrolysis [2, 16]	PET hydrolysis [2, 17]	PET hydrolysis [2, 18]	PET hydrolysis [2, 19]	purified protein yield per well [3] [µg]	PET hydrolysis [2, 20]	PET hydrolysis ([2]; substrate: cryPow, 60 °C, pH 8.5)
ATTSFQRGPAPTTASIQATSGPFATSQTTVSRISVTGFGGGDIYYPTSTSSGTFGAVAIAPGYTALRSSMAWLAPRIASQGFVVFNIDTLTTSDQPATRGTELLAALDYLTTRSTVRTRIDTTRLAVMGHSMGGGGTLEAAKSRPSLQAAIPLTPWDLNKSFAGLAVPTLIIGAQADTVAPVSQHAKPFFTSLPSGLDKAYLELAGASHFAPNTSNTTIASISIAWLKRFVDDDTRYDQFLCPGPTVGTAVSQFTTNCPHIS [ESM156]	40.6	< 3	< 3	< 3	< 3	< 3	< 3	< 3	< 3	< 3	9.5 ± 0.71	14.5 ± 5	< 3	< 3	< 3	< 3	< 3	272	–	–
ATTSYQRGPNPTEQSVRAANGPFAYSQFAIPDAEATGFGEGTIYYPNNTSVGTFGGVVIAPGFNADQNSTVWLGKRLASHGFVAVTITTHELNDQPYERGKQILAALDYLTGQSPAFVRSRLDPARLAAVGHSMGGGGTLFAAAQRPSLKAIVPLAPWALAKNWSNVQVPTMILSGAQDASAPPAEHAEKFYASLTSAPEKAYAKLDVNHVRFAWEHPLIGKLVVSWLKRFVDEDTRYTQFLCPTATGAVLLEYRATCPLG [DP026]	66.1	–	–	–	–	–	–	–	–	–	3	< 3	< 3	–	< 3	< 3	< 3	164	< 3	< 3
ATYERGPAPTAQSIVADGPFSYATVAVPTQSSFGGGTIYYPTDTNQGTFGAVAVIPGFVGSLDNVAWIGSRLASHGFVVFTVATTNPFAFPGDRAAQLQAALTYLTQSSSVRDRVDPNRLAVAGHSMGGGGALEAVRNNPALKAAVALQPWDFGQNFSAIAVPSMIVGAQNDQVATVTSHSEPFYDQIPAGAEKAYLELAGAGHDAGQSVSNATQAGSMLSWLKRYVDEDTRYEQFLCPAPSGPSVAEYRDTCPA [DP045]	45.7	–	–	–	–	–	–	–	–	–	< 3	< 3	< 3	–	–	–	–	37	< 3	–
AVHGPDPTDALLEASRGPYATAQIDVSALAVSGFGGGTIYYPTTTSEGTFGGVAIAPGYTADKSSLAWLAARLASHGFVVFNIDTLTRLDQPDSRGRQLLAALDYLTQRSSVRSRVDASRLGVMGHSMGGGGTLEAAVSRPSLRAAVPLTPWNLDKTWPEVRTPTLIIGADLDTIAPVLTHAEPFYASLPSTLDKAYLELNNATHFAPNITDTTIGKYAVAWMKRFIDDDTRYNRFLCPGPSWSLSVEEYRSTCPF [TEP061]	51.4	< 3	< 3	< 3	< 3	< 3	< 3	< 3	< 3	< 3	< 3	< 3	2 ± 2.8	< 3	< 3	< 3	< 3	299	–	–
CVTPAPPPAPDVATVTVGAGNGFGGGTIYYPQGATGRLPVVAASPGFTENQNAVGWYGPLLAREGNIVITIDTNSPFDSPTSRADQLLAAIDYVVNRSSVASIADGSRTAVMGHSMGGGGSLEAALKRPGLKAIIPLAPWNTTTNFSGVRVPTLIVGCQNDAIAPVGSHAEPFYQSIPATTPKAYLEIAGGDHFCTNSENPTIANYVVAWTDRFLQGDTSASSRLCPPPPAGGSISEYRANCPY [ESM050]	82.3	< 3	5	15.5 ± 0.71	7.5 ± 0.71	5	22.5 ± 5	15 ± 1.4	10.5 ± 0.71	13.5 ± 0.71	50.5 ± 11	84.5 ± 6.4	134 ± 8.5	40 ± 1.4	106 ± 2.1	132 ± 11	140 ± 12	236	–	–
DDGYQRGPDPTEESIEAPRGTFEIGMAVVTRASADGFGGGTVYYPTDTSEGTFGAVAVSPGYSSSQAAIAWLGPRLASQGFVVFTIDTLSTSDSPTRRGDQVLAALSFLGRTELADRIDPDRLAVMGHSMGGGGSLEAAKDYPALQAIVPMTPWSVDKTFPEVTAPTLVIGAEDDVVARPRSHAEPIYESLPADGDKAYLELRDASHSAPSAPNTLIARYSLSWLKRYVDDDERYQQFLCPPPAVDDEISEYRSTCA [DP089]	52	–	–	–	–	–	–	–	–	–	< 3	4	19	–	–	–	–	< 25	20	–
DEIGQAPTAGNITGNGSFTTTSESISSLVSGFGGGRVYYPTTAGKYPVVAISPGFTATWSSLSWIGPRLSSWGFVVVGIETNSIYDQPASRGSQLLAALNWAVNSSSSAVRARVDGSRRGVAGHSMGGGGTLEALAADTTGLVKAGVPIAPWNSDKTWNNVSEPVMIVGGQSDTVAPVASHSIPFYNTLAGPKGYVELTGASHFFPQSTNATLSRALVAWFKRWLNQDSRFTPYTCGFSGLAVSDFRSNAC [ESM090]	68.5	–	–	–	–	–	–	–	–	< 3	27	46	65	< 3	12	35	51	116	–	–
DEIGQAPTASNITGNGSFATTSASISSTVAGFGGGRVYYPTATGTYPVIAISPGFTATWSSLSWIGPRLSSWGFVVVGIETNSIYDQPGSRGSQLLAALNWAVSSSPTAVRSRVDGSRRGVAGHSMGGGGTLEALAADTSGLVKAGVPLAPWNSDKTWNNVSEPVLIVGGQSDTIAPVSSHSVPFYNTLAGPKTYVELTGASHFFPQSSNATTSRALVSWFKRWLNQDSRFTPFTCGFSGAAVSSFRTNAC [ESM093]	65.2	–	–	–	–	–	–	–	–	< 3	25	44	72	< 3	7	23	39	93.2	–	–
DEIGQAPTASNITGNGSFATTSESISSLVSGFGGGRVYYPTATGRYPVIAISPGFTATWSSLAWIGPRLSSWGFVVVGIETNSIYDQPGSRGNQLLAALNWAVNSSSTAVRSRVDGSRRGVAGHSMGGGGTLEALAADTSGLVKAGVPLAPWNTDKIWSNVSEPVLIVGGQADTIAPVATHSVPFYNTLAGPKTYVELTGASHFFPQTTNATTSRALVSWFKRWLNQDSRFTPYTCGFGGLAVSDFRSNAC [ESM147]	67.9	–	–	–	–	–	–	–	–	11	29	31	46	< 3	22	42	81	75.4	–	–
DEIGQAPTSSNITGNGSFSVATYNISSLVSGFGGGVAYYPTTSGRYPVIAVSPGFTARWSSISWIGPRLASWGFVVVGIETNSIYDQPGSRGSQLLAALNWAVNSAPSSVRDRVDGSRRGVAGHSMGGGGTLEALAADTTGLVKAGVPIAPWNTDTTWGGLNEAVQIVGGESDTIAPVSSHSIPFYSTLGGPKSYVELNGASHFFPQTSNSTLSRALVSWFKRYLNNDARFTPFTCGYSGLSISDFRSNNC [ESM144]	50.2	–	–	–	–	–	–	–	–	< 3	< 3	< 3	6	< 3	< 3	< 3	< 3	89.1	–	–
DEIGQAPTSSNITGNGSFSVSTYNISSLVTGFGGGVAYYPSTAGRYPVVAVSPGFTARWSSISWIGPRLASWGFVVVGIETNSVYDQPASRGSQLLAALNWAVNSAPSAITSRADGSRRGVAGHSMGGGGTLEALAADTTGNVKAGVPLAPWNSDKTWNNVNEPVQIIGGESDTVAGVSSHSIPFYNSLGGSKSYVELNGASHFFPQTTNATTSRALVSWFKRWLNQDARFTPFTCGYGGTAVSDFRTNAC [ESM177]	54.4	–	–	–	–	–	–	–	–	< 3	< 3	13	42	< 3	< 3	< 3	7	71.4	–	–
DPPTHAKGVKPGPSELAAPSASDLAADGPHAVTTTAISGSVTPGFGAATIYAPASGSGYGGVAISPGYMSTQSAVSWLGPRLASHGFVVITFDTTTIWDNPDSRGVQLLAALDYLTGSSPARGQVDASRLAVMGHSMGGGGSLAAAKSRPSIDAAIPLTPWHTDKTWPEVSTPTLIVGAENDGIAPVASHAEPFYESLATSTDRAYLELNAATHSAPNSENAQISTYSLAWLKRFVDGDTSVDPILCPGPAASSTVEEYRSSCPF [DP019]	42.7	–	–	–	–	–	–	–	–	–	< 3	< 3	< 3	–	–	–	–	28	< 3	–
DQGPPPTIASLSVDGAYAVMTYTDIPDVPEFGDATVYYPVDTAMPIGGVAISPGWTELQRHIEWWGPRLASHGYAVLILDTNDAMADQPEQRAEALIAAVRILRGENDRAGSPLSGRIDTEKMAIMGHSMGGGGVLIAANNYPAEIQAAIPFTPWQPAGDFSQVVAPTLVMAGSADRVASVSDHAWPHYQSIPESTIKVFLEIDGGSHFIADTSRGEDLGTIGRYGIAWLKLYLDGDERYRGFIYGDEAASDSEKFSRYVTSP [TEP021]	30.7	–	–	–	–	–	–	–	–	< 3	< 3	< 3	< 3	< 3	< 3	< 3	< 3	76.5	–	–
DQIGQAPTASNITGNGSFATTSASISSTVSGFGGGRVYYPTAAGTYPVIAISPGFTATWSSLAWIGPRLSSWGFVVVGIETNSIYDQPASRGNQLLAALNWAVNSSPTAVRSHVDGSRRGVAGHSMGGGGTLEALAADTTGLVKAGVPLAPWNTDKTWNNVSEPVLIVGGQADTVAPVASHSIPFYNTLAGPKTYVELTGQSHFFPQTTNATASRALVAWFKRWVSQDSRFTPFTCGFSGVAVSDFRSNAC [ESM082]	67.6	–	–	–	–	–	–	–	–	9	22	29	36	< 3	23	46	65	151	–	–
DQVGQAPTADNITGNGSFATTSAAITNQTGFGGGTVYYPTADGTYPVVAIVPGFAATWSQISWLGPRVASWGFVVVGVDTTSVFDSPQQRGDEFLAALNWAANSAPASTRGKVDGTRRGVAGWSMGGGGTLEAMAKDTTLKAGVPLAPWDTTQDWSKIGKPVFIVGAQNDLIAPPASHAIPFYNSLAGPKSYLELAGADHFFPISANPTVSRAVVSWFKRFVSADDRFAPFTCGFAGAAVSAFRTTAC [TEP103]	71.8	–	–	–	–	–	–	–	–	19	35	71	43	–	–	–	–	45.9	–	–
